From US20140234868A1, “USE FOR GLYCOLIPOPROTEIN GINTONIN, ISOLATED AND IDENTIFIED FROM GINSENG, AS A NATURAL MEDICAL-PLANT DERIVED LIGAND” (KONKUK UNIVERSITY INDUSTRIAL COOPERATION CORP., priority 2011, published 2014)

Experiments:
[1] = tested on: mouse EAT (Ehrlich Ascites Tumor); conditions: mouse EAT cells; PLC-coupled pathway; cited from earlier work
mice = assay: Busulfan-caused diarrhea and mucositis in mice; format: in vivo, mouse; conditions: for Diarrhea (cases / mice) / Mucositis (cases / mice): gintonin 100 mg/kg oral 3 days before, observed 10 days
Description: In this Example, an examination was made of the inhibitory activity of gintonin against chemotherapy-induced diarrhea and mucositis. For this, gintonin-treated mice were administered with busulfan, and observed for diarrhea and mucostitis.
Briefly, mice were orally administered at a dose of 100 mg/kg with gintonin 3 days before intraperitoneal injection with busulfan (40 mg/kg). For the control, physiological saline was used, instead of gintonin.

rat hippocampal slices = assay: Long-term potentiation (LTP) in rat hippocampal slices, theta burst stimulation; conditions: after TBS, n=4
Description: Since agintonin induces NMDA receptor activation as confirmed above, an examination was made of the effect of gintonin on LTP induction in rat hippocampal slices (Moon et al., Neursci. Lett. 466, 114-119, 2009; Lee et al., J Neurosci. Res. 89, 96-107, 2011). In this regard, LTP induction was studied after treatment with three different concentrations of gintonin (0.1, 1, and 10 μg/ml).
Male rats 3-5 weeks old (Sprague-Dawley strain) (Charls River, U.S.A.) were quickly sacrificed by cervical dislocation without using an anesthetic (Steidl et al., Brain Res. 1096, 70-84, 2006). With the aid of a rongeur (Fine Science Tools Inc., USA), the cranium was removed, and the brain was excised, immediately cooled in ice, and immersed in artificial cerebrospinal fluid (saCSF) containing oxygen-saturated (95% O2/5% CO2) sucrose (composition mM: Sucrose 248, NaHCO3 26, glucose 10, KCl 3, CaCl2 2, MgCl2 1, HEPES 10, pH7.4).
The hippocampus was sectioned into 400 μm slices using vibratome (MA752 motorised advance vibroslice; Campden inc.) and the hippocampal slices were stabilized in artificial cerebrospinal fluid (aCSF) (composition mM: […], NaHCO326, Glucose 10, KCl 3, CaCl2 2, MgCl2 1, HEPES 10, pH 7.4) for 1 hr (Lelong and Rebel, J Pharmacol Toxicol Methods. 39, 203-210, 1998).
OHSCs were incubated according to the Stoppini method (Stoppini et al., J Neurosci Methods 37, 173-182, 1991), and all procedures were conducted on a sterilized bench.
Immediately after excision from the cranium, the rat brain was immersed in an ice-cold HBSS-medium (LB 003-01, Sigma, St. Louis, Mo., USA), and the hippocampus was separated and sectioned at a thickness of 400 μm using a tissue chopper (Mickle Laboratory Engineering Co., Surrey, UK). The hippocampal slices were placed on a membrane insert (polytetrafluorethlene membranes, 0.4 μm Millicell-CM, Millipore Co., Bedford, Mass., USA), and immersed in a culture medium. […]

[2] = busulfan 40 mg/kg i.p., gintonin 100 mg/kg oral
[3] = busulfan 40 mg/kg i.p., listed as Gintonin + Busulfan

B1: gintonin: ginseng-derived glycolipoprotein; structural protein of ginseng major latex-like protein (MLP151) and ribonuclease-like storage proteins; crude gintonin used in tests (protein)
chain 1: MGLTGKLICQTGIKSDGDVFHELFGTRPHHVPNITPANIQGCDLHEGEFGKVGSVVIWNYSIDGNAMIAKEEIVAIDEEDKSVTFKVVEGHLFEEFKSIVFSVHVDTKGEDNLVTWSIDYEKLNESVKDPTSYLDFLLSVTRDIEAHHLPK
chain 2: RSDYPWAMFALRLQWPAGFCEVNNACDTKSLLNTFTIHGLYPYNAKGTPALYCDGTAFDVNSVSDFLAEMHLAWPSHETNTEDIQFWEHEWKKHGRCSEALLKQTDYFRTALAFRKAFDIVGLLNQEGIYPNNDLYRPKMIKEAIKKHLNAVPEIDFTKNENSEYVLTDINVCVNQQATRFVDCPTDDATDDYRLKFVRLPSKMKFADPRTNSII
[1]
  transient increase in cytoplasmic free Ca2+ level: induces a transient increase in cytoplasmic free Ca^2+ level
mice; [2]
  diarrhea morbidity rate: 20%
  perianal mucositis morbidity: 13.3%
mice; busulfan 40 mg/kg i.p.
  Diarrhea (cases / mice): 3
  Mucositis (cases / mice): 2
mice; [3]
  Diarrhea (cases / mice): 3/15
  Mucositis (cases / mice): 2/15
mice; gintonin 100 mg/kg oral
  inhibition of busulfan-caused perianal mucositis: 33.4%
  reduction of busulfan-caused diarrhea: more than 30%
Rat hippocampal slices; gintonin 0.1 μg/ml
  total field excitatory postsynaptic potentials (total fEPSPs): 180.90±7.53%
Rat hippocampal slices; gintonin 1 μg/ml
  total field excitatory postsynaptic potentials (total fEPSPs): 205.32±6.40%
Rat hippocampal slices; gintonin 10 μg/ml
  total field excitatory postsynaptic potentials (total fEPSPs): 214.14±11.55%
